Assay results from publication doi:10.1101/2025.05.20.655083 (2025).
Where no end group is shown, it is not given here. The star is where a group is joined. FITC = O=C1OC2(c3ccc(O)cc3Oc3cc(O)ccc32)c2ccc(NC(=S)*)cc21; Ahx = NCCCCCC(=O)O

Tests used:
Experiment in all cases: FP
mouse importin α2 ΔIBB = mouse importin α2 ΔIBB (mouse, UniProt P52293 70-529)
human importin α5 ΔIBB = human importin α5 ΔIBB (human)
human importin α1 ΔIBB = human importin α1 ΔIBB (human)
human importin α7 ΔIBB = human importin α7 ΔIBB (human)
human importin α7 ΔIBB (human), sequence (chain, as listed by the source mutant): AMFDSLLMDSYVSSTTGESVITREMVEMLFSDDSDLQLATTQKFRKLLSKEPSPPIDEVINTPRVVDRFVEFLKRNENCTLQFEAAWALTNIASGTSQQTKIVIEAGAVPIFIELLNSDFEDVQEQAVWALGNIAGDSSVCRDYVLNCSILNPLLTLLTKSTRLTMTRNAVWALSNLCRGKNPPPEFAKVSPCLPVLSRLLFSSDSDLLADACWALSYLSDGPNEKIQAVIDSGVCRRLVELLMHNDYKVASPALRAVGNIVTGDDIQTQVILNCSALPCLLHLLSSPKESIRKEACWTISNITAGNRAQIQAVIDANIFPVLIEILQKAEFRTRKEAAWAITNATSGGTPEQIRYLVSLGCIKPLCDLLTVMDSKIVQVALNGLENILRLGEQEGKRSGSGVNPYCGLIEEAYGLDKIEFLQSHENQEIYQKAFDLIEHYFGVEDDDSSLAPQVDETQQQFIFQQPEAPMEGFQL

human importin α5 ΔIBB (human), sequence (chain, as listed by the source mutant): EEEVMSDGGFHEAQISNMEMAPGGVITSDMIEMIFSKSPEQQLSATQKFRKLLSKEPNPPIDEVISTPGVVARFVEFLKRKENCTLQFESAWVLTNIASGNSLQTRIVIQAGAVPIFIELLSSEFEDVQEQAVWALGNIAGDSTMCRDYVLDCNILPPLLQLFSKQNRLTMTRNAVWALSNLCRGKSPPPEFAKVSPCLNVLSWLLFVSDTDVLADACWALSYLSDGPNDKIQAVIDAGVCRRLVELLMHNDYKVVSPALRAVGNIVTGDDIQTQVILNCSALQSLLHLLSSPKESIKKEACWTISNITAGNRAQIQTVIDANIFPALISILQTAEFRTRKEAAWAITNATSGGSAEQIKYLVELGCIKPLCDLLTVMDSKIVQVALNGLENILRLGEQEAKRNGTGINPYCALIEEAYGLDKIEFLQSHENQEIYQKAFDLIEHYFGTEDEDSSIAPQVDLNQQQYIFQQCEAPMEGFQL

B1: BSB PyV-LTA;NLS peptide (Black Sea Bass polyomavirus large tumor antigen residues 660-683) (peptide)
peptide: {FITC-Ahx}-IAEYKRRHNIGSDGLPNKRRRCLF
Mouse importin α2 ΔIBB
  Kd: 4 nM
Human importin α5 ΔIBB
  Kd: 12 nM
Human importin α1 ΔIBB
  Kd: 31 nM
Human importin α7 ΔIBB
  Kd: 2 nM
